Assay results as given in the supplement of paper PMC6757056.
± gives the standard deviation of the averaged measurements.

B1: library; a variant is named by its letters at N, in order (parent)
chain: GCUGUCACCGAGAAACUGUGAAGUAUAUCUUAAACCUGGGCACUUAAAAGAUAUAUGGAGUUAGUAGUGCAACCUGCUCGGUCUGAUGAGUCCNNNNNNGGACGAAACAGC

Tests used:
[1] = variants of: B1; experiment: FACS-Seq fitted mean relative fluorescence mCherry/BFP without ligand (log10 relative fluorescence); HEK293T; ligand: cyclic di-GMP (c-di-GMP-II aptamer); higher = higher reporter protein expression; details: ligand present: no
Procedure, shortened: (§1)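 An mCherry reporter containing the ribozyme switch and an EF1α-BFP marker were introduced by lentivirus into HEK293T libraries. Cells were enriched, incubated 48 h with or without ligand, sorted into 6 bins by mCherry/BFP, and bin genomic DNA was PCR-amplified, barcoded and sequenced on MiSeq. Fluorescence represents the normalized fitted normal mean of the bin counts. Fitting was done on log10(mCherry/BFP), scaling to five spiked-in control ribozymes.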

[2] = variants of: B1; experiment: normalized RNA/DNA level without ligand (relative to sTRSVctl = 100) (log10 (% of sTRSVctl)); HEK293T; ligand: cyclic di-GMP (c-di-GMP-II aptamer); higher = less ribozyme self-cleavage, higher mRNA level; details: reporter: mCherry (pCS4076), ligand present: no
Procedure, shortened: (§2)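 Library plasmids carrying ribozyme switches linked to mCherry, or to eGFP in some ligand experiments, were transfected into HEK293T at 4 µg per 6-well well, with any ligand added 1 h earlier. Seventy-two hours on, total RNA was extracted with EDTA and reverse-transcribed, amplified, barcoded and sequenced. RNA level was RNA over DNA reads normalized to a spiked-in non-cleaving sequence or to the top sequences, then scaled and log-transformed. The top set was 25 sequences, the transform was ×100 and log10, and sequences needed ≥100 DNA reads.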

[3] = variants of: B1; experiment: FACS-Seq fitted mean relative fluorescence mCherry/BFP with ligand (log10 relative fluorescence); HEK293T; ligand: cyclic di-GMP (c-di-GMP-II aptamer); ligand concentration (+) FACS-Seq: 1 mM; higher = higher reporter protein expression; details: ligand present: yes
Procedure, shortened: as §1

[4] = variants of: B1; experiment: normalized RNA/DNA level with ligand (relative to sTRSVctl = 100) (log10 (% of sTRSVctl)); HEK293T; ligand: cyclic di-GMP (c-di-GMP-II aptamer); ligand concentration (+) RNA-Seq: 1 mM; higher = less ribozyme self-cleavage, higher mRNA level; details: reporter: mCherry (pCS4076), ligand present: yes
Procedure, shortened: as §2

| Variant | FACS-Seq fitted mean (log10) [1] | normalized RNA/DNA level without ligand (log10) [2] | FACS-Seq fitted mean (log10) [3] | normalized RNA/DNA level with ligand (log10) [4] |
| --- | --- | --- | --- | --- |
| GAAGCA | -0.476 ± 0.078 | 1.8 ± 0.082 | -0.329 ± 0.2 | 1.88 ± 0.15 |
| GCCAGG | -0.568 ± 0.068 | 1.75 ± 0.071 | -0.429 ± 0.034 | 1.84 ± 0.087 |
| CCGUUG | -0.483 ± 0.093 | 1.28 ± 0.069 | -0.2456 ± 0.00076 | 1.49 ± 0.1 |
| GUUAGA | -0.409 ± 0.02 | 1.51 ± 0.12 | -0.0172 ± 0.12 | 1.73 ± 0.11 |
| AGAAUC | -0.291 ± 0.023 | 1.63 ± 0.06 | -0.0843 ± 0.044 | 1.78 ± 0.073 |
| ACUGAU | -0.368 ± 0.075 | 1.43 ± 0.11 | -0.128 ± 0.13 | 1.62 ± 0.11 |
| UCUGCU | -0.406 ± 0.013 | 1.786 ± 0.0052 | -0.176 ± 0.02 | 1.88 ± 0.081 |
| CACCCU | -0.383 ± 0.019 | 1.65 ± 0.082 | -0.109 ± 0.033 | 1.75 ± 0.038 |
| GUGAUU | -0.56 ± 0.007 | 1.621 ± 0.01 | -0.311 ± 0.025 | 1.79 ± 0.088 |
| GCACUU | -0.492 ± 0.071 | 1.588 ± 0.015 | -0.235 ± 0.081 | 1.8 ± 0.063 |
| UAAGUA | -0.292 ± 0.034 | 1.609 ± 0.0095 | -0.0651 ± 0.011 | 1.78 ± 0.086 |
| CUUCAA | -0.32 ± 0.059 | 1.43 ± 0.099 | 0.136 ± 0.056 | 1.64 ± 0.083 |
| UUACCA | -0.0643 ± 0.075 | 1.75 ± 0.055 | 0.275 ± 0.047 | 1.84 ± 0.1 |
| UGCGUU | -0.0716 ± 0.19 | 1.691 ± 0.0015 | 0.15 ± 0.093 | 1.9 ± 0.096 |
| CAGACU | -0.00398 ± 0.14 | 1.584 ± 0.0086 | 0.149 ± 0.04 | 1.72 ± 0.1 |
| AAUGUG | 0.000386 ± 0.089 | 1.58 ± 0.051 | 0.206 ± 0.026 | 1.76 ± 0.09 |
| CCUUUA | -0.242 ± 0.11 | 1.38 ± 0.062 | 0.149 ± 0.0049 | 1.64 ± 0.1 |
| GUAGUA | -0.69 ± 0.1 | 1.663 ± 0.0053 | -0.47 ± 0.075 | 1.74 ± 0.099 |
| GUAAGG | -0.295 ± 0.022 | 1.59 ± 0.078 | 0.0239 ± 0.038 | 1.74 ± 0.067 |
| ACGUAA | -0.0329 ± 0.12 | 1.43 ± 0.079 | 0.314 ± 0.082 | 1.63 ± 0.087 |
| ACAUUA | -0.21 ± 0.0052 | 1.41 ± 0.087 | 0.0676 ± 0.069 | 1.62 ± 0.078 |
| ACAUUG | -0.689 ± 0.036 | 1.53 ± 0.024 | -0.401 ± 0.11 | 1.69 ± 0.13 |
| ACUUAG | -0.25 ± 0.093 | 1.59 ± 0.024 | 0.0154 ± 0.058 | 1.75 ± 0.096 |
| CAGCUU | -0.396 ± 0.075 | 1.62 ± 0.095 | -0.151 ± 0.049 | 1.75 ± 0.091 |

| Variant | FACS-Seq fitted mean (log10) [1] | normalized RNA/DNA level without ligand (log10) [2] | FACS-Seq fitted mean (log10) [3] | normalized RNA/DNA level with ligand (log10) [4] |
| --- | --- | --- | --- | --- |
| GAUCAU | -0.326 ± 0.12 | 1.63 ± 0.051 | -0.0439 ± 0.023 | 1.79 ± 0.14 |
| UUCAAU | -0.187 ± 0.012 | 1.71 ± 0.03 | 0.267 ± 0.037 | 1.82 ± 0.14 |
| ACAAUG | -0.431 ± 0.026 | 1.39 ± 0.15 | -0.0705 ± 0.082 | 1.66 ± 0.098 |
| ACGAAG | -0.359 ± 0.056 | 1.42 ± 0.13 | 0.0516 ± 0.11 | 1.63 ± 0.088 |
| CACGUG | -0.341 ± 0.18 | 1.67 ± 0.019 | -0.148 ± 0.21 | 1.84 ± 0.085 |
| CCAGUC | -0.422 ± 0.072 | 1.68 ± 0.023 | -0.0312 ± 0.045 | 1.83 ± 0.077 |
| AACAGA | -0.897 ± 0.023 | 1.39 ± 0.14 | -0.683 ± 0.0078 | 1.59 ± 0.11 |
| GUUUAU | -0.2549 ± 0.0013 | 1.652 ± 0.0032 | -0.31 ± 0.34 | 1.81 ± 0.086 |
| GUGUGC | -0.9793 ± 0.0011 | 1.4 ± 0.12 | -0.724 ± 0.0079 | 1.63 ± 0.09 |
| GAAUGC | 0.00373 ± 0.18 | 1.63 ± 0.013 | 0.31 ± 0.049 | 1.75 ± 0.12 |
| GAAUGG | -0.119 ± 0.036 | 1.62 ± 0.041 | 0.0864 ± 0.016 | 1.75 ± 0.086 |
| AUAGGG | -0.534 ± 0.02 | 1.41 ± 0.12 | -0.187 ± 0.073 | 1.59 ± 0.15 |
| CGGACU | -0.791 ± 0.13 | 1.48 ± 0.14 | -0.611 ± 0.11 | 1.64 ± 0.11 |
| AGGUAA | -0.299 ± 0.023 | 1.43 ± 0.034 | -0.0992 ± 0.054 | 1.56 ± 0.17 |
| UUUGUU | -0.123 ± 0.13 | 1.73 ± 0.063 | 0.125 ± 0.064 | 1.86 ± 0.13 |
| AAAUUG | -0.199 ± 0.011 | 1.56 ± 0.096 | -0.00914 ± 0.051 | 1.72 ± 0.097 |
| CGGGGC | -0.104 ± 0.11 | 1.73 ± 0.055 | 0.215 ± 0.046 | 1.84 ± 0.14 |
| CGGUCC | -0.137 ± 0.077 | 1.8527 ± 0.0016 | 0.251 ± 0.017 | 1.96 ± 0.069 |
| GCCCCA | -0.109 ± 0.025 | 1.72 ± 0.024 | 0.138 ± 0.041 | 1.86 ± 0.085 |
| UCGAGU | -0.395 ± 0.033 | 1.47 ± 0.066 | -0.0571 ± 0.032 | 1.73 ± 0.11 |
| AUGAUU | -0.57 ± 0.11 | 1.41 ± 0.17 | -0.0144 ± 0.094 | 1.62 ± 0.11 |
| UUGACA | -0.91 ± 0.064 | 1.701 ± 0.0052 | -0.508 ± 0.077 | 1.83 ± 0.14 |
| CUCGCU | -0.0213 ± 0.09 | 1.8 ± 0.047 | 0.226 ± 0.12 | 1.9 ± 0.079 |
| AAUUAA | -0.5829 ± 0.0026 | 1.51 ± 0.063 | -0.251 ± 0.11 | 1.72 ± 0.074 |

| Variant | FACS-Seq fitted mean (log10) [1] | normalized RNA/DNA level without ligand (log10) [2] | FACS-Seq fitted mean (log10) [3] | normalized RNA/DNA level with ligand (log10) [4] |
| --- | --- | --- | --- | --- |
| AGUAGU | 0.132 ± 0.03 | 1.64 ± 0.066 | 0.367 ± 0.029 | 1.78 ± 0.13 |
| ACACGA | -0.4507 ± 0.0033 | 1.37 ± 0.16 | -0.174 ± 0.061 | 1.55 ± 0.11 |
| CGACGA | -0.45 ± 0.042 | 1.5 ± 0.094 | -0.105 ± 0.043 | 1.71 ± 0.071 |
| GUUUGA | -0.499 ± 0.039 | 1.56 ± 0.086 | -0.212 ± 0.018 | 1.71 ± 0.042 |
| GUUUGG | -0.428 ± 0.018 | 1.62 ± 0.068 | -0.249 ± 0.089 | 1.8 ± 0.13 |
| GUAAAG | -0.104 ± 0.13 | 1.55 ± 0.078 | 0.22888 ± 7.2e-05 | 1.74 ± 0.065 |
| GAGCCU | -0.783 ± 0.038 | 1.79 ± 0.072 | -0.638 ± 0.064 | 1.89 ± 0.12 |
| CACGCA | -0.406 ± 0.0063 | 1.61 ± 0.04 | -0.00856 ± 0.11 | 1.79 ± 0.11 |
| UAUGUA | -0.622 ± 0.023 | 1.668 ± 0.0069 | -0.405 ± 0.035 | 1.84 ± 0.08 |
| GUGAAU | -0.688 ± 0.083 | 1.57 ± 0.07 | -0.318 ± 0.04 | 1.75 ± 0.12 |
| GCUGUU | -0.596 ± 0.057 | 1.63 ± 0.059 | -0.418 ± 0.084 | 1.79 ± 0.082 |
| AUACGA | -0.518 ± 0.09 | 1.46 ± 0.08 | -0.228 ± 0.13 | 1.67 ± 0.14 |
| UAGGAA | -0.246 ± 0.044 | 1.49 ± 0.07 | -0.00386 ± 0.085 | 1.68 ± 0.16 |
| AUUGAA | -0.159 ± 0.14 | 1.48 ± 0.079 | 0.152 ± 0.0043 | 1.66 ± 0.031 |
| UGAAAU | -0.0172 ± 0.1 | 1.66 ± 0.043 | 0.368 ± 0.014 | 1.84 ± 0.14 |
| AUGAGA | -0.299 ± 0.14 | 1.35 ± 0.12 | -0.147 ± 0.0049 | 1.54 ± 0.15 |
| AGCCUU | 0.0156 ± 0.081 | 1.712 ± 0.003 | 0.33 ± 0.038 | 1.85 ± 0.084 |
| CGCCAC | -0.0985 ± 0.057 | 1.69 ± 0.027 | 0.173 ± 0.026 | 1.84 ± 0.12 |
| AGUGAC | -0.339 ± 0.017 | 1.63 ± 0.038 | -0.00165 ± 0.05 | 1.77 ± 0.13 |
| UAAGGA | -0.894 ± 0.046 | 1.54 ± 0.1 | -0.73 ± 0.051 | 1.7 ± 0.066 |
| CGAGAU | -0.412 ± 0.057 | 1.52 ± 0.064 | -0.0533 ± 0.042 | 1.76 ± 0.11 |
| GACGGA | -0.135 ± 0.078 | 1.47 ± 0.078 | 0.0761 ± 0.072 | 1.63 ± 0.076 |
| CCCUGC | -0.0175 ± 0.34 | 1.792 ± 0.0034 | 0.142 ± 0.079 | 1.9 ± 0.16 |
